The values that follow come from paper PMC8307404, “Crystal Structure-Guided Design of Bisubstrate Inhibitors and Photoluminescent Probes for Protein Kinases of the PIM Family” (Molecules, 2021).

For series [1], the system named is AMPK. As to the kind of experiment: Kinase profiling (radiometric filter-binding). Format: biochemical, human. The conditions noted are these: 1 µM inhibitor. The protocol:
(§1) Kinase selectivity profiling was performed using the commercial service provided by the MRC PPU International Centre for Kinase Profiling (Dundee, UK) using a radiometric filter-binding assay. Kinases used for analysis were of human origin. The ATP concentration applied for inhibition measurements was at or below the ATP KM value of the particular PK. ARC-3125 and ARC-3126 were screened against 139 PKs, whereas compounds 1, 2, and 8 were screened against 140 PKs. The final total concentration of inhibitors in the selectivity panel was 1 µM. Residual activities were expressed as the percentage of retained activity compared to the control without inhibitor.

In series [2] the test system is PINK. Description: Kinase profiling (radiometric filter-binding). Format: biochemical, human. Conditions: 1 µM inhibitor. The protocol: as §1
The subject of series [3] is p38 MAPK. As to the kind of experiment: Kinase profiling (radiometric filter-binding). It counts as biochemical, human. The conditions noted are these: 1 µM inhibitor. The protocol: as §1
Series [4] deals with panel of 140 PKs. As to the kind of experiment: Kinase selectivity profiling, panel metrics. Format: biochemical, human. The conditions noted are these: 1 µM compound; kinases other than PIM family. The method, then: as §1
From the residual activities, values of the Gini coefficient and hit rate were calculated for each individual compound. The Gini coefficient is a single-value metric whose value for a specific inhibitor depends on the number and origin of the PKs in the panel, but also on concentration of the tested compound [70]. Hit rate is the number of kinases inhibited by over 50%.

Series [5] addresses PIM2 (Homo sapiens, UniProt Q9P1W9). As to the kind of experiment: Kinase profiling (radiometric filter-binding). It counts as biochemical. Conditions: PIM2, 1 µM inhibitor; read-out: Residual activity, %. The procedure, abridged: (§2)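 Activity remaining (% of control without inhibitor) at 1 µM final compound; human kinases, ATP ≤ KM, radiometric filter binding.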
For series [6], the target named is MSK1 (Homo sapiens, UniProt O75582). As to the kind of experiment: Kinase profiling (radiometric filter-binding). It counts as biochemical. The conditions noted are these: MSK1, 1 µM inhibitor; read-out: Residual activity, %. The procedure, abridged: as §2
Sequence of MSK1 (O75582 whole entry): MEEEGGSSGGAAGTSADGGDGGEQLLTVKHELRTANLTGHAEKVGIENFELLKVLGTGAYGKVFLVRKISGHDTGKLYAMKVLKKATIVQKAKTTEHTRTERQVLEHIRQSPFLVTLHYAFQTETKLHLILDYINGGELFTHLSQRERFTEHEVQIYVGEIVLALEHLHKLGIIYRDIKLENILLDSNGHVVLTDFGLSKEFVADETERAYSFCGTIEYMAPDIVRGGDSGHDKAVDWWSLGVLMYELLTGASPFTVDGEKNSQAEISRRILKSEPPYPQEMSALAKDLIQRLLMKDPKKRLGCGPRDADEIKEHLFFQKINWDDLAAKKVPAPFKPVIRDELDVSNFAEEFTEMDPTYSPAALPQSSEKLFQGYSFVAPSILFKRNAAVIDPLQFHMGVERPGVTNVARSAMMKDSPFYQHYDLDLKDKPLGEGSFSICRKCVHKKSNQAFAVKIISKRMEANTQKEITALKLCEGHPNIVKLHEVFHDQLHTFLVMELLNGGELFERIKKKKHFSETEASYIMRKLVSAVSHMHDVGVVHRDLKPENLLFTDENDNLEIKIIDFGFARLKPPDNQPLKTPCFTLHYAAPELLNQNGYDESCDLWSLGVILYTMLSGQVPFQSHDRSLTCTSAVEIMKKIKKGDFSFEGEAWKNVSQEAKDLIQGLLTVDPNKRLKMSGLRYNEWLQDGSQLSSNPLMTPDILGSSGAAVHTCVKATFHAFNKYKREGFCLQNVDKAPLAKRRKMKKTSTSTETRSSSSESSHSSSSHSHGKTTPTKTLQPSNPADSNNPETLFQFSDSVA
Series [7] has as its target T1, PKD1 (Homo sapiens, UniProt Q15139).
T1 sequence (Q15139 1-912): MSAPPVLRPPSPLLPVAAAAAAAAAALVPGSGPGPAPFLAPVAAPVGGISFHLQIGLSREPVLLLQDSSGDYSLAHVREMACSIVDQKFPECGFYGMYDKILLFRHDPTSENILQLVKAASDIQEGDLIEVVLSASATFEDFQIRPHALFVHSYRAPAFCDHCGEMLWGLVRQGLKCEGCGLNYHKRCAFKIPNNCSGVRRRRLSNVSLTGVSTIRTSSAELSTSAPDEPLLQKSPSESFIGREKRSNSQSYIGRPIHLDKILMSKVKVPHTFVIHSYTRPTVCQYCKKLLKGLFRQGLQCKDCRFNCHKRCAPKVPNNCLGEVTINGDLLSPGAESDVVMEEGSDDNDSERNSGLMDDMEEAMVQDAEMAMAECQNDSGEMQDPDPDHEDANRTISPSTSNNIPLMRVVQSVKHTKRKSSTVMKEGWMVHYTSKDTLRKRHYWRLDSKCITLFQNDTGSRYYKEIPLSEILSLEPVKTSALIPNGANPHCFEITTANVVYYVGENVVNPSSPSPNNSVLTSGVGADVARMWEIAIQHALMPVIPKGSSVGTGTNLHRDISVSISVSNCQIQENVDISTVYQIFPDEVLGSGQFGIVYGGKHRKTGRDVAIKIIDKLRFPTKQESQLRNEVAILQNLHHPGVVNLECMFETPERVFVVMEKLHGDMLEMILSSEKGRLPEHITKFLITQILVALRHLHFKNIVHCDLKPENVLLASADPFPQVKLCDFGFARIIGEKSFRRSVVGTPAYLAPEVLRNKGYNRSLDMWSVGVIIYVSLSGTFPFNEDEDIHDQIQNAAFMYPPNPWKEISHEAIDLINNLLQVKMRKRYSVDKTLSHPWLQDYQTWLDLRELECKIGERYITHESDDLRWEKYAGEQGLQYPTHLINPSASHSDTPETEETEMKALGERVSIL
As to the kind of experiment: Kinase profiling (radiometric filter-binding). It counts as biochemical. Conditions: PKD1, 1 µM inhibitor; read-out: Residual activity, %. An outline of the steps: as §2

In series [8] the target is T2, TSSK1 (Homo sapiens, UniProt Q9BXA7).
T2 sequence (Q9BXA7 1-367): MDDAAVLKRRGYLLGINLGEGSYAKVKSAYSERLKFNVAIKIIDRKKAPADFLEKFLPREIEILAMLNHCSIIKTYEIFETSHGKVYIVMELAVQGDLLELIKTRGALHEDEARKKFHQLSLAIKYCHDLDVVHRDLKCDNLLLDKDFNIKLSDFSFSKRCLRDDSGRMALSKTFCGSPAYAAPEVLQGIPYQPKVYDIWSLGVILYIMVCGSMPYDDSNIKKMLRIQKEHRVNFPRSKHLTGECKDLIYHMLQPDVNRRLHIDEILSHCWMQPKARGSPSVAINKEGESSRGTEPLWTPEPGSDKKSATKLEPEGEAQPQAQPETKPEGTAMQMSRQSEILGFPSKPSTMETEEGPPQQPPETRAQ
Description: Kinase profiling (radiometric filter-binding). It counts as biochemical. Conditions: TSSK1, 1 µM inhibitor; read-out: Residual activity, %. The procedure, abridged: as §2

Series [9] has as its target BRK (Homo sapiens, UniProt Q13882). As to the kind of experiment: Kinase profiling (radiometric filter-binding). Conditions: 1 µM inhibitor, read-out: Residual activity, %. Format: biochemical. An outline of the steps: as §2
The target of series [10] is MST4 (Homo sapiens, UniProt Q9P289). As to the kind of experiment: Kinase profiling (radiometric filter-binding). Format: biochemical. Conditions: MST4, 1 µM inhibitor; read-out: Residual activity, %. An outline of the steps:
as §2

Series [11] addresses HER4 (Homo sapiens, UniProt Q15303). As to the kind of experiment: Kinase profiling (radiometric filter-binding). It counts as biochemical. Conditions: HER4, 1 µM inhibitor; read-out: Residual activity, %. An outline of the steps: as §2
Series [12] deals with MINK1 (Homo sapiens, UniProt Q8N4C8). As to the kind of experiment: Kinase profiling (radiometric filter-binding). The conditions noted are these: MINK1, 1 µM inhibitor; read-out: Residual activity, %. It counts as biochemical. An outline of the steps: as §2
Series [13] deals with ABL (Homo sapiens, UniProt P00519). As to the kind of experiment: Kinase profiling (radiometric filter-binding). It counts as biochemical. Conditions: 1 µM inhibitor, read-out: Residual activity, %. The procedure, abridged:
as §2

The target in series [14] is MARK3 (Homo sapiens, UniProt P27448). As to the kind of experiment: Kinase profiling (radiometric filter-binding). It counts as biochemical. Conditions: MARK3, 1 µM inhibitor; read-out: Residual activity, %. The procedure, abridged:
as §2

The target of series [15] is MARK1 (Homo sapiens, UniProt Q9P0L2). As to the kind of experiment: Kinase profiling (radiometric filter-binding). Format: biochemical. Conditions: MARK1, 1 µM inhibitor; read-out: Residual activity, %. The procedure, abridged: as §2
Series [16] addresses BTK (Homo sapiens, UniProt Q06187). As to the kind of experiment: Kinase profiling (radiometric filter-binding). It counts as biochemical. Conditions: 1 µM inhibitor, read-out: Residual activity, %. The procedure, abridged:
as §2

Series [17] deals with PAK5 (Homo sapiens, UniProt Q9P286). Description: Kinase profiling (radiometric filter-binding). It counts as biochemical. Conditions: PAK5, 1 µM inhibitor; read-out: Residual activity, %. An outline of the steps: as §2
Sequence of PAK5 (Q9P286 whole entry): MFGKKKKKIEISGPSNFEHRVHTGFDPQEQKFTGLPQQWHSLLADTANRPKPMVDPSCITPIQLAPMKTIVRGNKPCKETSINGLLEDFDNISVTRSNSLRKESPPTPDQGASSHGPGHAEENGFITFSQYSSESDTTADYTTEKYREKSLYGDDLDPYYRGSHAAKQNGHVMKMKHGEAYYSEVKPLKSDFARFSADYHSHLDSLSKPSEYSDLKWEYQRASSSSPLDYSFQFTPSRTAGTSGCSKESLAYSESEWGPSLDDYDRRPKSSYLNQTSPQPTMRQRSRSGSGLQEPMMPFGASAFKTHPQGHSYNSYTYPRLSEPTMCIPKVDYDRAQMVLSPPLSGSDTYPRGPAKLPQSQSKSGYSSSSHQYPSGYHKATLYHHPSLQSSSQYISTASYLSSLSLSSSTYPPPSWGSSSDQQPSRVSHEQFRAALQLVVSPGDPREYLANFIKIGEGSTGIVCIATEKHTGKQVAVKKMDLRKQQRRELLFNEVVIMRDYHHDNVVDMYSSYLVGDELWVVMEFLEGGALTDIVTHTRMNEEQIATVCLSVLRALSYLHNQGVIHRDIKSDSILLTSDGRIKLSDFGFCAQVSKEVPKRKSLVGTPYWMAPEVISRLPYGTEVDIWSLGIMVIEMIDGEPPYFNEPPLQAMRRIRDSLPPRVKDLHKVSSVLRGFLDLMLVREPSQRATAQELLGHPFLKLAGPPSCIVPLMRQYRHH
Series [18] addresses PAK4 (Homo sapiens, UniProt O96013). Description: Kinase profiling (radiometric filter-binding). It counts as biochemical. Conditions: PAK4, 1 µM inhibitor; read-out: Residual activity, %. The procedure, abridged: as §2

Structures are written as SMILES.

Sequence of BRK (Q13882 whole entry): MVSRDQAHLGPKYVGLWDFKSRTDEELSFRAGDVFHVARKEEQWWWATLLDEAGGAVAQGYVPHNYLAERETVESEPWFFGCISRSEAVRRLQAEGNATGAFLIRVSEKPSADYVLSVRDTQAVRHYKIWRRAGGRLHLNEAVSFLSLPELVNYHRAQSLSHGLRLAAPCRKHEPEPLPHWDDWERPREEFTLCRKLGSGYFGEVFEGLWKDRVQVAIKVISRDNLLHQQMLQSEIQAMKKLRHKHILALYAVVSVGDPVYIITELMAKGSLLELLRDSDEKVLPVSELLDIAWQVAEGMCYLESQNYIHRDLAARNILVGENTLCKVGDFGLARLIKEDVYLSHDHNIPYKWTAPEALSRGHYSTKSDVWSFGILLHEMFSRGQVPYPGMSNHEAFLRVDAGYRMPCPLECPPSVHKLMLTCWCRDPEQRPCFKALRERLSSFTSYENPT
Sequence of MARK3 (P27448 whole entry): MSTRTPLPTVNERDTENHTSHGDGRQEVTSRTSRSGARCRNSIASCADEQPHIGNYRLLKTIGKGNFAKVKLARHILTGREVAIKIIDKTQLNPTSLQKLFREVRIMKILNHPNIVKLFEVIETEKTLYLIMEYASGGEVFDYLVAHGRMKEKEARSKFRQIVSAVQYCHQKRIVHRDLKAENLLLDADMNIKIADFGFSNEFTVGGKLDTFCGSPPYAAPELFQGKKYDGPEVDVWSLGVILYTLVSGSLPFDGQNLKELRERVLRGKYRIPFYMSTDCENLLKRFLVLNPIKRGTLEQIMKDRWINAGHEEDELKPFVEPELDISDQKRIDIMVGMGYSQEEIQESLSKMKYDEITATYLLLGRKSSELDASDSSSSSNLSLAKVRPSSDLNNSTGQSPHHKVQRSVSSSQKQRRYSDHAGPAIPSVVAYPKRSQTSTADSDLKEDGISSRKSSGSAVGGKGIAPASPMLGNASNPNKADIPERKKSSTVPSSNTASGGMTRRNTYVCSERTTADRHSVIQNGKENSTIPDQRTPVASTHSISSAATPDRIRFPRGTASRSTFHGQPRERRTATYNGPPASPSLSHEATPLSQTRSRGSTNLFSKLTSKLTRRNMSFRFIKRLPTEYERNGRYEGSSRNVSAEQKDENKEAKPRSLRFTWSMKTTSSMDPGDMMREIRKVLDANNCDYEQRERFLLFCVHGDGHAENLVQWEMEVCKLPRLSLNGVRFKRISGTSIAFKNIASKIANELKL
Sequence of HER4 (Q15303 26-1308): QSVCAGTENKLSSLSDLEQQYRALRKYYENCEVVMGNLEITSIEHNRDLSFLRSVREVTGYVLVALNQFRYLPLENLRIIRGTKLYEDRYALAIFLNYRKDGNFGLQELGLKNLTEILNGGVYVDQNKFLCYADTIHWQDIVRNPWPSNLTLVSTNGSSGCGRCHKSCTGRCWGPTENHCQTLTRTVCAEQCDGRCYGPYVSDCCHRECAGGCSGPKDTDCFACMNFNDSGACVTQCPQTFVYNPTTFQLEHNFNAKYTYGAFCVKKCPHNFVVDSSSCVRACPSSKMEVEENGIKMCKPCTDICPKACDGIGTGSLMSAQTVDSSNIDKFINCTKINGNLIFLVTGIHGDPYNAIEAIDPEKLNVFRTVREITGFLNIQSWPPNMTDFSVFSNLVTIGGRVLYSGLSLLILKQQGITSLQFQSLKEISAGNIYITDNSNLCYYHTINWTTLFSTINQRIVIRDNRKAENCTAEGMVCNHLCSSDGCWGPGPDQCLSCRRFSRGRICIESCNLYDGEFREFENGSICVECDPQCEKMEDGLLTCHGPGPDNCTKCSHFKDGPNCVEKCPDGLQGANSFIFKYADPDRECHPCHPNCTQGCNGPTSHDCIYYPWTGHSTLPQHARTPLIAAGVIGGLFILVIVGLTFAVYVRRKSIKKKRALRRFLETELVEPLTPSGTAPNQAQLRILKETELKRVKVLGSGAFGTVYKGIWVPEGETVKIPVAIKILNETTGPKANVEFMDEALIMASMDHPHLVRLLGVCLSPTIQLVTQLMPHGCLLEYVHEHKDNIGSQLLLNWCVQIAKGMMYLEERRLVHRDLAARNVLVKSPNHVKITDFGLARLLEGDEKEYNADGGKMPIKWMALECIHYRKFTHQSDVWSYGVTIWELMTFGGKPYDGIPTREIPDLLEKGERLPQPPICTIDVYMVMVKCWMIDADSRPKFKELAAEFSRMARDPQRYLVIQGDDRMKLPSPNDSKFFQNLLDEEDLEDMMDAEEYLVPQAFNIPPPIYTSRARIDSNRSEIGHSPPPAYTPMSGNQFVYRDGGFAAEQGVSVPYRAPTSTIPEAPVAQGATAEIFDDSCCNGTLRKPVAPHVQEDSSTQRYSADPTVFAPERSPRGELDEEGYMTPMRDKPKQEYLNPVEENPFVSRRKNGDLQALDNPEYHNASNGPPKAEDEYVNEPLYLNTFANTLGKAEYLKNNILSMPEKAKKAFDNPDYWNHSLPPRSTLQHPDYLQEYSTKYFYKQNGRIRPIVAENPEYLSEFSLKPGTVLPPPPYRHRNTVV
Sequence of MST4 (Q9P289 whole entry): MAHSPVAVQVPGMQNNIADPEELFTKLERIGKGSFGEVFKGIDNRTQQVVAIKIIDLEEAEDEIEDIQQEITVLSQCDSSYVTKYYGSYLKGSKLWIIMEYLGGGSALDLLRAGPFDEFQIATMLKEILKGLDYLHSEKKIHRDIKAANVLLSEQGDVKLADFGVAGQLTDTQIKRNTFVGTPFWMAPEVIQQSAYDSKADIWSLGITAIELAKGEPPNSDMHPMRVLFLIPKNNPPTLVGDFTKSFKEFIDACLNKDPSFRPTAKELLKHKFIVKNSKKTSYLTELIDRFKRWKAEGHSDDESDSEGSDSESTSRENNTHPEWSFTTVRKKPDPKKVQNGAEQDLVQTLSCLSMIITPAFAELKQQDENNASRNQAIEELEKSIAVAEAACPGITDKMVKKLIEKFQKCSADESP
Sequence of PAK4 (O96013 whole entry): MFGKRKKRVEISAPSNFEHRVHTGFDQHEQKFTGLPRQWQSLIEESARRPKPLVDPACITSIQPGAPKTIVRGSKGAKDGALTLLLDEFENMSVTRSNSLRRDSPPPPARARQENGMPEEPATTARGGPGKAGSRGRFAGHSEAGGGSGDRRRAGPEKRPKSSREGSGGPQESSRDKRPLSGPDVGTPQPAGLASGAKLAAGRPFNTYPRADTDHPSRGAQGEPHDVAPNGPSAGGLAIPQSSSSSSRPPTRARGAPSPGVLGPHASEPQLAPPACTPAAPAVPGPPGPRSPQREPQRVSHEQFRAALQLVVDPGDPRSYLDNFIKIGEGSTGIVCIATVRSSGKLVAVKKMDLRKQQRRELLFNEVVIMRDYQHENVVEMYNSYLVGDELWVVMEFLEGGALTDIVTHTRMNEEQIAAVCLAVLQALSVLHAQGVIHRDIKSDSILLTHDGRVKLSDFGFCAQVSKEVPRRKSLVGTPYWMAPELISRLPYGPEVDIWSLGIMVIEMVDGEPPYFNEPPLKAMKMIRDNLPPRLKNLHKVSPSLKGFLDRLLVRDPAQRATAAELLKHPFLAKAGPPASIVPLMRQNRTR

Take `N=C(N)NCCC[C@@H](NC(=O)CNC(=O)[C@@H](CCCNC(=N)N)NC(=O)[C@@H](CCCNC(=N)N)NC(=O)CCCCCCCNCc1nc2c(sc3cc(Br)cnc32)c(=O)[nH]1)C(=O)N[C@H](CCCCN)C(N)=O` [Compound 1, BPTP-Aoc-(D-Arg)2-Gly-D-Arg-D-Lys-NH2]: the “Residual activity, %” value in [1] amounted to 92 ± 9%; in series [2], 116 ± 5%; in series [3] (fourth of four lines (Greek letter lost)), 116 ± 6%; in series [3] (third of four lines (Greek letter lost)), 109 ± 7%. Further, the “residual activity of other basophilic kinases in the panel” value in series [4] was “above 81%”. In addition, the remaining activity at 1 µM in [5] amounted to 72%; in series [6], 106 ± 13%; in [7], 128 ± 13%; in series [8] it was 98 ± 9%; in series [9], 126 ± 8%; in series [10], 143 ± 10%. Moreover, the remaining activity at 1 µM in series [11] was determined as 111 ± 13%; in [12], 129 ± 2%; in series [13], 94 ± 8%; in series [14] it was 100 ± 6%; in series [15], 110 ± 15%; in series [16], 106 ± 10%. Moreover, the values for the remaining activity at 1 µM in series [17] and in series [18] were 112 ± 3% and 91%, respectively.
